{"source": "paper PMC3973126", "about": "(Journal of Human Genetics, 2014)", "proteins": {"B1": {"name": "UGT1A1 (sample observed by atomic force microscopy) (enzyme, human, UniProt P22309 26-533, looked up)", "chain": "HAGKILLIPVDGSHWLSMLGAIQQLQQRGHEIVVLAPDASLYIRDGAFYTLKTYPVPFQREDVKESFVSLGHNVFENDSFLQRVIKTYKKIKKDSAMLLSGCSHLLHNKELMASLAESSFDVMLTDPFLPCSPIVAQYLSLPTVFFLHALPCSLEFEATQCPNPFSYVPRPLSSHSDHMTFLQRVKNMLIAFSQNFLCDVVYSPYATLASEFLQREVTVQDLLSSASVWLFRSDFVKDYPRPIMPNMVFVGGINCLHQNPLSQEFEAYINASGEHGIVVFSLGSMVSEIPEKKAMAIADALGKIPQTVLWRYTGTRPSNLANNTILVKWLPQNDLLGHPMTRAFITHAGSHGVYESICNGVPMVMMPLFGDQMDNAKRMETKGAGVTLNVLEMTSEDLENALKAVINDKSYKENIMRLSSLHKDRPVEPLDLAVFWVEFVMRHKGAPHLRPAAHDLTWYQYHSLDVIGFLLAVVLTVAFITFKCCAYGYRKCLGKKGRVKKAHKSKTH"}}, "target": "the molecule itself", "assay": "atomic force microscopy"}
{"protein": "B1", "values": [{"measurement": "stoichiometry N", "value": 2}]}
